Blank lines part the entries; values can stand above or below the binder they belong to. No end group written: not given here.
Experiments:
[1] = molecular target: T1, Prostate-specific membrane antigen (PSMA) (human, UniProt Q04609 1-750); experiment: competitive inhibition on LNCaP cells, peptide pre-incubation at 100 uM then phage, phage titering
T1 construct: whole, on cells; Never tested as an isolated protein against single peptides; also called NAAG peptidase; glutamate carboxypeptidase II (GCPII)
Procedure: Competitive inhibition assay. Competitive binding inhibition between selected phages and their encoded peptides was examined in this study. […] The bound phages were recovered and titered as described above.
It was first evaluated whether these phages bind to LNCaP cells via specific interaction with their encoding peptides. LNCaP cells were pre-incubated with the encoding peptides, followed by washing and incubation with the corresponding phages. The bound phages were then eluted and titered.

[2] = molecular target: T1, Prostate-specific membrane antigen …; experiment: apparent Kd, flow cytometry, FAM-labeled peptide on PSMA-positive LNCaP cells, 4 C, one-site fit
Source text: Flow cytometry analysis. Cells were detached using non-enzymatic cell dissociation solution and suspended in PBS (pH=7.4) at a concentration of 1×10⁶ cells/mL. […] The cells were then washed with PBS for three times and subjected to fluorescence analysis on a FACSCalibur flow cytometer (BD Biosciences, Franklin Lakes, N.J.).
Apparent equilibrium dissociation constant (Kd) of the peptides. […] Flow cytometry was employed to determine the percentage of cells that were labeled with the peptides. The apparent Kd values were calculated by fitting to a one-site specific binding model using GraphPad Prism 5.

[3] = molecular target: T1, Prostate-specific membrane antigen …; experiment: apparent Kd by flow cytometry on C4-2 cells; weaker than GTI

T1 sequence (Q04609 whole entry): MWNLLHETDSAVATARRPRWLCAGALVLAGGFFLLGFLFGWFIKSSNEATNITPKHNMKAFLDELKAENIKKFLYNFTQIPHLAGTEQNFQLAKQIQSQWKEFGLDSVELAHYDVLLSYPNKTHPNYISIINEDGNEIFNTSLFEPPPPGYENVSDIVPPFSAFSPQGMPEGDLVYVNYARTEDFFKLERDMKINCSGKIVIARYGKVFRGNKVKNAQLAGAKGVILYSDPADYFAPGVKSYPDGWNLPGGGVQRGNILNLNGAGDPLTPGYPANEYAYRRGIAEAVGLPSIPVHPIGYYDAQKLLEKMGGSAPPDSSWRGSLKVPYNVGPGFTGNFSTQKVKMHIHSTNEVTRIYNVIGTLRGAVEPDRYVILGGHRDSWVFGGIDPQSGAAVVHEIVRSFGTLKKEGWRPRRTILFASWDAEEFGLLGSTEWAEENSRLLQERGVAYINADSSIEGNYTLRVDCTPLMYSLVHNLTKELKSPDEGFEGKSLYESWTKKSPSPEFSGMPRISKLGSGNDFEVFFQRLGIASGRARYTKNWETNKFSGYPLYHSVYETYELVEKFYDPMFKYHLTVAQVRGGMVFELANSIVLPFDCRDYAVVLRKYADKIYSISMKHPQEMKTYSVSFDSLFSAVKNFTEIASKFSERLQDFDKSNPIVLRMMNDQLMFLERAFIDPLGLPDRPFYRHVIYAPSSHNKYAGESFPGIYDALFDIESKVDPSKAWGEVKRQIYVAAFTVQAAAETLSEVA

binding result [1]: binds
Binder: YVNSHSILGYTG [YVN synthetic peptide YVNSHSILGYTG]

Kd [2]: 12.8 µM
Binder: HSDNHYRPADKL (also: FAM label, position not given here) [FAM-labeled HSD peptide HSDNHYRPADKL]

Kd [2]: 9.34 µM
Binder: YVNSHSILGYTG (also: FAM label, position not given here) [FAM-labeled YVN peptide YVNSHSILGYTG]

binding result [1]: binds
Binder: TGHLYPTRMEIQ [TGH synthetic peptide TGHLYPTRMEIQ]

Kd [2]: 8.01 µM
Binder: TGHLYPTRMEIQ (also: FAM label, position not given here) [FAM-labeled TGH peptide TGHLYPTRMEIQ]

binding result [3]: binds
B1: FAM-labeled scrambled GTI peptide SGYQTFYWPGPI (peptide)
peptide: SGYQTFYWPGPI
modifications: also: FAM label, position not given here
notes: Random permutation of the GTI peptide; also called scrambled peptide; scrambled control

Reference: patent publication US20170240596A1 (CURATORS OF THE UNIVERSITY OF MISSOURI, published 2017)
